For assay [1], the target named is T1, human GPC1 on cells (T3M4, KLM1, H8, 2B9) (human) (UniProt P35052).
T1 sequence (looked up): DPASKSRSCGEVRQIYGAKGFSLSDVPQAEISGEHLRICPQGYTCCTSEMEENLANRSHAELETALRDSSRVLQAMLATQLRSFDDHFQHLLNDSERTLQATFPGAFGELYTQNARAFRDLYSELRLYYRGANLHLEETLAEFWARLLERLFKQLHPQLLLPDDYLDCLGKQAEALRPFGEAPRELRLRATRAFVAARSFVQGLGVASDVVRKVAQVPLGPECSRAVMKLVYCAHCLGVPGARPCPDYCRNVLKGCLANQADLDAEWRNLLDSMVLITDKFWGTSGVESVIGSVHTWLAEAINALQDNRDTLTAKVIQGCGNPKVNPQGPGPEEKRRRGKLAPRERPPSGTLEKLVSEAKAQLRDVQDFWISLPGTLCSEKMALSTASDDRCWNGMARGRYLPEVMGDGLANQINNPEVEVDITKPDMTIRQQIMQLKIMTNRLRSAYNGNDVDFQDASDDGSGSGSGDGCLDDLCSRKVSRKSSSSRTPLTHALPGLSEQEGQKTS
The assay is described as follows: flow cytometry on T3M4 pancreatic cancer cells, non-specific control IgG, goat anti-mouse IgG-PE. A general note: A flow cytometer gives signals particle by particle.

The next assay concerns the target T2, human glypican-3 (GPC3) (human, UniProt P51654 25-559, limits assumed).
T2 construct: Named through 'human GPC1 through GPC6' in the methods; also called human GPC3; other human glypican members
Put plainly: monoclonal phage ELISA on plate-coated glypicans. (In general: An ELISA detects its analyte on a solid surface through an enzyme-linked reagent.)

The target in a further assay is T3, human glypican-2 (GPC2) (human, UniProt Q8N158 24-554, limits assumed).
T3 construct: Named through 'human GPC1 through GPC6' in the methods; also called human GPC2; other human glypican members
T3 sequence (looked up): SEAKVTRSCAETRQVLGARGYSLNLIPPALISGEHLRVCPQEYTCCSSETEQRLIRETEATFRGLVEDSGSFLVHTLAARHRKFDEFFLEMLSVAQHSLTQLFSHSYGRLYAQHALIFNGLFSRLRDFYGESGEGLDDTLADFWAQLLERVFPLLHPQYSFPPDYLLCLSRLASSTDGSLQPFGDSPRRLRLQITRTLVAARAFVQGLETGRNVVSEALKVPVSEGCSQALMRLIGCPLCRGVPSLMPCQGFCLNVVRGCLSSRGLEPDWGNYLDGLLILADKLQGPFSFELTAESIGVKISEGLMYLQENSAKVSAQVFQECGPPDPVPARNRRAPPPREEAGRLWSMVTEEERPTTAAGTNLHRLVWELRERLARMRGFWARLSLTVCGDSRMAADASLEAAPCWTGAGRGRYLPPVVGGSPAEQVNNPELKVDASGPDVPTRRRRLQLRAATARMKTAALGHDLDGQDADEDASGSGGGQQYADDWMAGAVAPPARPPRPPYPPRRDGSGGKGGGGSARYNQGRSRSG
Put plainly: monoclonal phage ELISA on plate-coated glypicans.

A further assay concerns the target T4, human glypican-6 (GPC6) (human, UniProt Q9Y625 24-529, limits assumed).
T4 construct: Named through 'human GPC1 through GPC6' in the methods; also called human GPC6; other human glypican members
T4 sequence (looked up): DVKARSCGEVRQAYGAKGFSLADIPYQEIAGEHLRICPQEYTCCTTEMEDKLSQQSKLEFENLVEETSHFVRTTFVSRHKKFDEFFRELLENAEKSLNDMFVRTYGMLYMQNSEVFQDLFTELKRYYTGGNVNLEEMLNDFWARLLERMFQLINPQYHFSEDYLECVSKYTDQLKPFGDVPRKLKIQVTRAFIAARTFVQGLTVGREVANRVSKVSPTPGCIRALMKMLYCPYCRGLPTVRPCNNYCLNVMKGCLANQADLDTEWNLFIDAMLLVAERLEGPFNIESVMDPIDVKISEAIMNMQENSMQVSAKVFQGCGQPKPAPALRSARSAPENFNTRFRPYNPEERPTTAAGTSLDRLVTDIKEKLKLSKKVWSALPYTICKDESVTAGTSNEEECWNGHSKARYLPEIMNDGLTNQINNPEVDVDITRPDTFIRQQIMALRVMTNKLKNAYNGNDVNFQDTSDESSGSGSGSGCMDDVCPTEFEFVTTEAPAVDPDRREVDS
Put plainly: monoclonal phage ELISA on plate-coated glypicans.

For the next assay, the target named is T5, human glypican-5 (GPC5) (human, UniProt P78333 25-551, limits assumed).
T5 construct: Named through 'human GPC1 through GPC6' in the methods; also called human GPC5; other human glypican members
T5 sequence (looked up): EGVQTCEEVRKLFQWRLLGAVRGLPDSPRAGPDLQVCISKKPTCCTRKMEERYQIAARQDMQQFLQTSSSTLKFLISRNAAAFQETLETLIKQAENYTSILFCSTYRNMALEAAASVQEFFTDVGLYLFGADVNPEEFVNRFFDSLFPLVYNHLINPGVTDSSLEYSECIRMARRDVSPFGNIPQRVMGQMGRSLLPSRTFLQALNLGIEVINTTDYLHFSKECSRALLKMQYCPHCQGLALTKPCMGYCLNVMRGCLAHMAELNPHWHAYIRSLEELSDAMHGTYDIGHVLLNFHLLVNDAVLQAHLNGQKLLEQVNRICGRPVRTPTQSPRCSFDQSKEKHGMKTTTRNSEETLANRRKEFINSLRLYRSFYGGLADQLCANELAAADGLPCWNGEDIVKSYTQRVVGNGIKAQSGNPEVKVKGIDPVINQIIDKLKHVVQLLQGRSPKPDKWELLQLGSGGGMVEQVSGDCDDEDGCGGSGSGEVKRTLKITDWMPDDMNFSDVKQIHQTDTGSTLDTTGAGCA
The assay is described as follows: monoclonal phage ELISA on plate-coated glypicans.

The next assay has as its target T6, GPC1 peptide 15.
T6 peptide: LYYRGANLHLEETLAEFW
Put plainly: ELISA on peptides of the GPC1 peptide library.

The next assay concerns the target T7, GPC1 peptide 14.
T7 peptide: FRDLYSELRLYYRGANLH
Put plainly: ELISA on peptides of the GPC1 peptide library.

The target in a further assay is T8, human glypican-4 (GPC4) (human, UniProt O75487 19-529, limits assumed).
T8 construct: Named through 'human GPC1 through GPC6' in the methods; also called human GPC4; other human glypican members
T8 sequence (looked up): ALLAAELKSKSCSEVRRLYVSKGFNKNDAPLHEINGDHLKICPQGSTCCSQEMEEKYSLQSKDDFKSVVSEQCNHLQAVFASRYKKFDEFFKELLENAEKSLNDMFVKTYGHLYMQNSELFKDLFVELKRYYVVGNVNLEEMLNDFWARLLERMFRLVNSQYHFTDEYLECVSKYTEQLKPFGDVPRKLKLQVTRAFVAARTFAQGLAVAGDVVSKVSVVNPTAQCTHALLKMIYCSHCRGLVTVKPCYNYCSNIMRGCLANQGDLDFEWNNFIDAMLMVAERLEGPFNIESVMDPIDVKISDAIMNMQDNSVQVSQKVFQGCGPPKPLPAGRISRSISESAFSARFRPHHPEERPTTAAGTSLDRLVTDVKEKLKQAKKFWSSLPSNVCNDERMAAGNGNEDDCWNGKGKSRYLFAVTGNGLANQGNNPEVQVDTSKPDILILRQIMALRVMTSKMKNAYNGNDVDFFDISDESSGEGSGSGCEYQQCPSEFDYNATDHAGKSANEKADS
The assay is described as follows: ELISA on human GPC4, anti-FLAG detection. The protocol:
Mouse hybridoma supernatant containing 1 µg/ml of each mAb was incubated with plates coated with human GPC1 through GPC6 purchased from R&D Systems. Binding was detected with a goat anti-mouse IgG conjugated with horseradish peroxidase (HRP) (Jackson ImmunoResearch). […] Binding was detected with an anti-FLAG HRP-conjugated antibody (Sigma-Aldrich). […] Recombinant human GPC1-hFc protein at concentrations of 5 µg/ml and 1 µg/ml were then added to the plate.

Assay [2] deals with T9, recombinant human GPC1-hFc protein (human, UniProt P35052 24-530, limits assumed).
T9 construct: Analyte in the Octet measurement of D4; not shown: human Fc (hFc)
T9 sequence (looked up): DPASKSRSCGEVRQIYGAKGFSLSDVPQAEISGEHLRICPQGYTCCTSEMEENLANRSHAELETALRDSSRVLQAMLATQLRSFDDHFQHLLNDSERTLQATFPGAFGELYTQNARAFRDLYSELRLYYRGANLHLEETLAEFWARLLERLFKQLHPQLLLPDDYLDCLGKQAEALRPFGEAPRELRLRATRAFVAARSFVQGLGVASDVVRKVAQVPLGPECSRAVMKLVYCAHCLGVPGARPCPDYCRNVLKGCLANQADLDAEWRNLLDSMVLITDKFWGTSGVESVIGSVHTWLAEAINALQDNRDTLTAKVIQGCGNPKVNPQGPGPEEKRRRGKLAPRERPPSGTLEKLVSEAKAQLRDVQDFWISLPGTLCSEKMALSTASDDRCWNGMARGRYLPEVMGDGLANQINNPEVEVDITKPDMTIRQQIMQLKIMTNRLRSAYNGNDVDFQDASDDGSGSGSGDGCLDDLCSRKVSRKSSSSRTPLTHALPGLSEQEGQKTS
Put plainly: Octet (BLI), His-tagged D4 on Ni-NTA biosensor, serially diluted human GPC1-hFc in solution. As for the experimental part: Data analysis was performed using the FortéBio analysis software.

Another assay concerns the target T10, mouse GPC1 protein (mouse, UniProt Q9QZF2 24-529, limits assumed).
T10 sequence (looked up): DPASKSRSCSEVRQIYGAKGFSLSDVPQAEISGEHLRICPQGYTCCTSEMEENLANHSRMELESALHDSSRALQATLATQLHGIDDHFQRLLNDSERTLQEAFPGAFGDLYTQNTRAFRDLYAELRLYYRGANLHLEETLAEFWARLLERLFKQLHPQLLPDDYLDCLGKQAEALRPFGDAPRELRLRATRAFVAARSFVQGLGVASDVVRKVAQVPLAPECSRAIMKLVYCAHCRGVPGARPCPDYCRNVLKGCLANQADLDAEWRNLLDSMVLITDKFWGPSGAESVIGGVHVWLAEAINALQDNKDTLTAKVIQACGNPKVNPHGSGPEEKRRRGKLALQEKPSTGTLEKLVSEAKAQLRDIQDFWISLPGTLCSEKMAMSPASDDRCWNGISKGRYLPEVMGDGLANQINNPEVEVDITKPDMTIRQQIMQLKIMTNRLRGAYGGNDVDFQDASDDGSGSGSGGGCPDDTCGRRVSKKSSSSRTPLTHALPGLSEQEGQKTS
Put plainly: monoclonal phage ELISA on plate-coated mouse GPC1.

In [1], Neg ctrl (antibody) registered an MFI of 7.

B1: D4 camel single-domain antibody (VHH)
VHH: QVQLVESGGGLVQPGGSLRLSCVASGYSYSIGYMAWFRQAPGKERAWVASRYTGDGGAVFDDAVKGRFTTSQESAGNTFDLQMDSLKPEDTAMYYCAAKGPGFGRWEYWGRGTQVTVSS
notes: the methods describe D4 at 1 ug/ml detected with anti-FLAG; also called D4 antibody; D4 clone; not shown: FLAG and His tags (detected with anti-FLAG; 'His-tagged D4')
By Kd is commonly meant the concentration at which binding is half-saturated. Regarding B1, the binding result is listed as “no binding (tested: 1 µg/ml (per paragraph 203; not on the sheet))” with human glypican-3 (GPC3); “no binding (tested: 1 µg/ml (per paragraph 203; not on the sheet))” with human glypican-2 (GPC2); “no binding (tested: 1 µg/ml (per paragraph 203; not on the sheet))” in the assay with human glypican-6 (GPC6); “no binding (tested: 1 µg/ml (per paragraph 203; not on the sheet))” in the assay with human glypican-5 (GPC5); “binds” with GPC1 peptide 15; “binds” in the assay with GPC1 peptide 14. The binding result is “no binding (tested: 1 µg/ml)” with human glypican-4 (GPC4) and “binds” with mouse GPC1 protein. For the same molecule, the Kd in assay [2] was 0.7 nM.

Source of the values: patent publication US20230340146A1 (US Dept. of Health and Human Services, published 2023).
